The record followed here is patent publication US20130203078A1.

Bounds are passed on as bounds.

Common to all, as to test: cell-based or functional assay
Assay [1] concerns the target Human Interleukin 8 Receptor (hIL8RA), on RBL-2H3 cells with human granzyme A (Sensor A) (human) (UniProt P25024).
Assay [2] deals with TNP-BSA conjugate (trinitrophenyl hapten conjugated to bovine serum albumin) (bovine) (UniProt P02769).
For assay [3], the target named is T1, human native unmodified procaspase-3 (huCasp3) (human) (UniProt P42574).
T1 sequence (looked up): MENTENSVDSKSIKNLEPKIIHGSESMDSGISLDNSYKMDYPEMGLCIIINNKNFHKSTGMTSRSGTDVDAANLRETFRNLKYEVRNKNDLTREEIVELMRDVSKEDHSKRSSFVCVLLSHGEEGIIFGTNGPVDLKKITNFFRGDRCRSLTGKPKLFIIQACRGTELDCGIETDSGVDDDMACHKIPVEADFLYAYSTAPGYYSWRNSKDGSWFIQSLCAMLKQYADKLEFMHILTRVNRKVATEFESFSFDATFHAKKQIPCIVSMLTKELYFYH

Assay [4] addresses mutated human procaspase-3 (mut-huCasp3), amino acids 172 to 179 changed from IETDSGVD to IEPDVLME (human) (UniProt P42574).
The target in assay [5] is Human Somatostain Receptor 2 (SSTR2), c-myc tagged with viral glycosilation sequence, on RBL-2H3 cells (human) (UniProt P30874).
The target of assay [6] is Human Bradykinin Receptor B1 (BDKRB1), c-myc tagged with viral glycosilation sequence, on RBL-2H3 cells (human) (UniProt P46663).
Sequence of Human Bradykinin Receptor B1 (BDKRB1), c-myc tagged with viral glycosilation sequence, on RBL-2H3 cells (human) (P46663 other isoform, or with tags, fused parts or gaps): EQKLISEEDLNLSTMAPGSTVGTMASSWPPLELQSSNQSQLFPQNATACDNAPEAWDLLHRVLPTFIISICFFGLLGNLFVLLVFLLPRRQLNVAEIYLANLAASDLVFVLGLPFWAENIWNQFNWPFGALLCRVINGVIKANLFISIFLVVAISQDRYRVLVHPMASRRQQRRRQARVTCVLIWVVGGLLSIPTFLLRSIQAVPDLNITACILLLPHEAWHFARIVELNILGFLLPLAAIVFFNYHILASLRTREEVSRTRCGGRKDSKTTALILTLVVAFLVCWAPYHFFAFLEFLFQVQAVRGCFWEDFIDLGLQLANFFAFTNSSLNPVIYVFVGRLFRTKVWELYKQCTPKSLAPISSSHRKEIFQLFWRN

Sequence of Human Interleukin 8 Receptor (hIL8RA), on RBL-2H3 cells with human granzyme A (Sensor A) (human) (P25024 other isoform, or with tags, fused parts or gaps, form in doubt): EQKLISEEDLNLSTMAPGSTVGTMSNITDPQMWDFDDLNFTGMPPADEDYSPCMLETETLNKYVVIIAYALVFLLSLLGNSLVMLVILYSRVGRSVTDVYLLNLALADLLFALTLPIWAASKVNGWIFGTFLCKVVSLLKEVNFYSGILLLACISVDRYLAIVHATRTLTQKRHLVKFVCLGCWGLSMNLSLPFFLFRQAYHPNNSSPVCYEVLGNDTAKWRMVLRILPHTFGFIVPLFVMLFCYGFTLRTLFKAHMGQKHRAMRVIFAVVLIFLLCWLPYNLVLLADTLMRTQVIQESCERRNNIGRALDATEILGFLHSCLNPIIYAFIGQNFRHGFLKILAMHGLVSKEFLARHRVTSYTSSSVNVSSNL
Sequence of Human IL8 (P10145 28-99 limits assumed): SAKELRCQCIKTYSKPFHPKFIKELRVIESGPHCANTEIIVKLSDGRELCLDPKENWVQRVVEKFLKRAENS
Sequence of Human Somatostain Receptor 2 (SSTR2), c-myc tagged with viral glycosilation sequence, on RBL-2H3 cells (human) (P30874 other isoform, or with tags, fused parts or gaps): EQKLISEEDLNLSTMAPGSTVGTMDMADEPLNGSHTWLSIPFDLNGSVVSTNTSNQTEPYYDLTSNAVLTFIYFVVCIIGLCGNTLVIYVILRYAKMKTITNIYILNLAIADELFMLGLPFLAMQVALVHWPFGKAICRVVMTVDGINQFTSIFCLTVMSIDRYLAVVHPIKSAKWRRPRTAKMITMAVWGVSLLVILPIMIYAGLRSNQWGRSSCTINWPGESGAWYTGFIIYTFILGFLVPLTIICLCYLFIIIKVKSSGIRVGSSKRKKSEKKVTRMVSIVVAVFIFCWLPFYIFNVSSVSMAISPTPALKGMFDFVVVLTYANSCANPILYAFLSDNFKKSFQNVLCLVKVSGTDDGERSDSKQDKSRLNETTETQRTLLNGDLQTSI

For “Human IL8 (from UniProt P10145 28-99) (ligand)”, in assay [1], the Signal to background at 30 min (released granzyme A activity; condition 2: Sensor A alone, IL8 10 uM) stood at 16; the Signal to background at 30 min (released granzyme A activity; condition 5: Sensor A mixed with Sensor B, IL8 10 uM and carbachol 10 uM) was 12.5.
With “mouse IgE monoclonal antibody against trinitrophenyl hapten from IgELb4 hybridoma (ATCC TIB-141)”, in assay [2], the Fluorescence after 30 minutes at 37 C (released granzyme B, FRET substrate), TNP-BSA 1 pg/mL is 35900 fluorescence; the Fluorescence after 30 minutes at 37 C (released granzyme B, FRET substrate), TNP-BSA 1 ng/mL was 34600 fluorescence; the Fluorescence after 30 minutes at 37 C (released granzyme B, FRET substrate), TNP-BSA 1 ug/mL came out at 30900 fluorescence; the Fluorescence after 30 minutes at 37 C (released granzyme B, FRET substrate), TNP-BSA 1 fg/mL was 29800 fluorescence. In addition, the limit of detection for TNP-BSA in assay [2] amounted to 0.1 ag/mL.
Regarding “human granzyme B secreted by stably transfected RBL-2H3 cells (from UniProt P10144 21-247) (enzyme)”, the Signal to Background (S/B), caspase-3 treated with granzyme B against caspase-3 only in assay [3] was 2.8. In assay [4], the Signal to Background (S/B), caspase-3 treated with granzyme B against caspase-3 only came out at 77 and the signal to background, supernatant equivalent to 5.000 cells, 384 well plate was over 20.
For seglitide (peptide), in assay [5], the Absorbance at maximal dilution of ELISA tested (human granzyme B sandwich ELISA of supernatant, dilution 2250, after subtraction of 0.2 blank) came to 2.4 absorbance and the Sensitivity (minimal amount of cells needed) was under 150 cells.
For “kallinin (from UniProt P01042 380-389) (peptide)”, in assay [6], the Absorbance at maximal dilution of ELISA tested (human granzyme B sandwich ELISA of supernatant, dilution 2250, after subtraction of 0.2 blank) came out at 0.8 absorbance; the Sensitivity (minimal amount of cells needed) is under 150 cells; the exocytosis of granzyme B, percent of maximal at 5 minutes was over 90%; the signal to background (S/B) of released granzyme B activity, medium taken at 5 to 15 minutes was 20 to 22. Also, in assay [6], the signal to background (S/B) of released granzyme B activity, medium taken at 30 minutes fell in the range of 15 to 17 and the signal to background (S/B) of released granzyme B activity, medium taken at 60 minutes fell in the range of 8 to 10.
